{
  "source": "the supplement of paper PMC9732359",
  "note": "± gives the uncertainty stated by the source.",
  "data": [
    {"test": "protein stability index of a GFP-peptide fusion (yeast GPS) (PSI 1-4); higher = more stable; sorted into four equal gates, so the index is relative within each strain", "details": "doa10∆", "in_short": "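Mid-log yeast cultures in leucine-free medium, carrying a pooled plasmid library, were sorted into four equal gates by their GFP/Cherry fluorescence ratio. Each plasmid expressed Cherry along with GFP fused upstream of a tiled 17-residue yeast protein peptide. Plasmids recovered from each gate were PCR-amplified and Illumina-sequenced, with reads assigned to strains by barcodes. The protein stability index was obtained by summing each gate's read frequency weighted by its gate number.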", "values": [
      {"sequence": "FTLWWSPTINRANVYVG [PRP8]", "protein stability index": "1.99 ± 0.089"},
      {"sequence": "FTMMTSEPLTLKVLSEH [PCI8]", "protein stability index": "1.73 ± 0.056"},
      {"sequence": "FTSAPIEVTIGIDQYSF [AAR2]", "protein stability index": "1.52 ± 0.09"},
      {"sequence": "FVKFITYLTQEILILIN [SIN4]", "protein stability index": "2.02 ± 0.05"},
      {"sequence": "FVKFLSKKGSLENNIRE [RPL10]", "protein stability index": "3.32 ± 0.18"},
      {"sequence": "FVKGISRDIKALQDSLF [YML103C/NUP188]", "protein stability index": "2.25 ± 0.071"},
      {"sequence": "FVKKTSEEIDSLNEDVE [SMC2]", "protein stability index": "2.97 ± 0.17"},
      {"sequence": "FVKVTKATLELLKLIEP [RPL7A]", "protein stability index": "3.06 ± 0.11"},
      {"sequence": "FVSESPSFVKSGKLRDY [ISW2]", "protein stability index": "2.41 ± 0.059"},
      {"sequence": "FVSSLSNTSTLKNMLYV [BRR2]", "protein stability index": "1.88 ± 0.058"},
      {"sequence": "FYRGNYTDFENTFQKTV [FAS1]", "protein stability index": "2.41 ± 0.074"},
      {"sequence": "GAELRSVCTEAGMFAIR [RPT1]", "protein stability index": "2.61 ± 0.18"},
      {"sequence": "GAHLLEFQPSGNVTELY [PRE5]", "protein stability index": "2.54 ± 0.12"},
      {"sequence": "GAIAYNQFKRIDTLLYL [RET1]", "protein stability index": "1.4 ± 0.1"},
      {"sequence": "GAIILTKMDGHARGGGA [SRP54]", "protein stability index": "2.88 ± 0.24"},
      {"sequence": "GAIKPFTPKLIYDFITL [ECM29]", "protein stability index": "1.73 ± 0.081"},
      {"sequence": "GAKFENIVHNFKERQMM [AAR2]", "protein stability index": "3.32 ± 0.081"},
      {"sequence": "GAKYVIRDSGDRIDLRY [RPO21]", "protein stability index": "3.23 ± 0.16"},
      {"sequence": "GANTSAAQTLLQMDYKD [PRE9]", "protein stability index": "3 ± 0.061"},
      {"sequence": "GASTVMKTKTINAQGEE [PRP8]", "protein stability index": "3.31 ± 0.11"},
      {"sequence": "GDEGYNEDMVRRANFYK [SNF12]", "protein stability index": "3.38 ± 0.14"},
      {"sequence": "GDIVLTRVTRLSLQRAN [CSL4]", "protein stability index": "2.14 ± 0.098"},
      {"sequence": "GDKFSEDFRIQFKTTIK [UBP6]", "protein stability index": "3.14 ± 0.1"},
      {"sequence": "GDKVVVTIWYRAPELLL [SSN3]", "protein stability index": "1.74 ± 0.058"},
      {"sequence": "GDSGISPEESKARSPGI [SIR4]", "protein stability index": "3.52 ± 0.15"},
      {"sequence": "GEALPNKFHKSIREDIL [SIR2]", "protein stability index": "3.16 ± 0.14"},
      {"sequence": "GEEDADEEETAEGQTNS [RPN1]", "protein stability index": "3.26 ± 0.18"},
      {"sequence": "GEFSGKNFSPTKRVEKP [RRP6]", "protein stability index": "2.37 ± 0.089"},
      {"sequence": "GEGPFTVKFKHMDYDGN [YMR129W/POM152]", "protein stability index": "2.79 ± 0.11"},
      {"sequence": "GEIEIKPNEEEELGFWD [RPN13]", "protein stability index": "3.15 ± 0.13"},
      {"sequence": "GEILLPDIADIPRTFRT [SNF5]", "protein stability index": "2.82 ± 0.14"},
      {"sequence": "GEKTLSSLALVFALHKY [SMC4]", "protein stability index": "2.57 ± 0.054"},
      {"sequence": "GENIDADNDGPRINNIS [SNF2]", "protein stability index": "3.44 ± 0.09"},
      {"sequence": "GFSMNNPYNIVPQGKIV [SMC3]", "protein stability index": "3.05 ± 0.11"},
      {"sequence": "GFSPTSPTYSPTSPAYS [RPO21]", "protein stability index": "2.81 ± 0.052"},
      {"sequence": "GGAYTVSTAAAATVRST [RPL43A]", "protein stability index": "2.1 ± 0.053"},
      {"sequence": "GGLFGNSAQNNSTTSGG [YGR119C/NUP57]", "protein stability index": "3.08 ± 0.069"},
      {"sequence": "GGQGNTDDYFEELRDLY [FAS1]", "protein stability index": "3.22 ± 0.088"},
      {"sequence": "GGSNYMSNLPFGLGYGD [RPC31]", "protein stability index": "2.83 ± 0.28"},
      {"sequence": "GHLPEVSSKCNDIHLRF [ECM29]", "protein stability index": "2.69 ± 0.11"},
      {"sequence": "GHRMKNAQSKLSLTLNT [SNF2]", "protein stability index": "1.94 ± 0.056"},
      {"sequence": "GHVKPVRCVNCSKSIPK [RPS26A]", "protein stability index": "2.8 ± 0.1"},
      {"sequence": "GIACAGKGLQSAIDVLD [RPN2]", "protein stability index": "2.15 ± 0.068"},
      {"sequence": "GIDQYSFNVKENQPFHG [AAR2]", "protein stability index": "2.65 ± 0.058"},
      {"sequence": "GIGALFTQQELQKQMGI [RPC34]", "protein stability index": "2.93 ± 0.11"},
      {"sequence": "GIKKHSLWRRTVYSLSQ [YDL116W/NUP84]", "protein stability index": "1.44 ± 0.066"},
      {"sequence": "GIKLQMQNSKVESVCQK [SMC4]", "protein stability index": "2.55 ± 0.074"},
      {"sequence": "GIKPPKGVLLYGPPGTG [RPT4]", "protein stability index": "2.73 ± 0.13"},
      {"sequence": "GIRGKLVTIEGALIHKA [SMC1]", "protein stability index": "3.33 ± 0.2"},
      {"sequence": "GITHFRAGMTHEDEKLI [PRP8]", "protein stability index": "2.62 ± 0.079"},
      {"sequence": "GKAKGDIPGVRFKVVKV [RPS23A]", "protein stability index": "3.32 ± 0.19"},
      {"sequence": "GKEFGTTPEKPEETPLE [FAS2]", "protein stability index": "2.77 ± 0.095"},
      {"sequence": "GKQIKSTIYNWGDNKLA [YML103C/NUP188]", "protein stability index": "2.71 ± 0.17"},
      {"sequence": "GKRHIFDVNTLCLMTWK [CDC53]", "protein stability index": "1.25 ± 0.061"},
      {"sequence": "GKRQLMKAVGEYMKRHP [SEC65]", "protein stability index": "2.73 ± 0.082"},
      {"sequence": "GLCGAGTNNARLAQLLR [RPN1]", "protein stability index": "2.44 ± 0.068"},
      {"sequence": "GLIVNPVKVSGTIKKIE [POP5]", "protein stability index": "2.41 ± 0.16"},
      {"sequence": "GLTTVWLLSALGNSIVK [REC8]", "protein stability index": "1.61 ± 0.085"},
      {"sequence": "GLVHDLCHPKKEKYGLA [SMC1]", "protein stability index": "2.59 ± 0.11"},
      {"sequence": "GMGGGMPDMNEMMKMMQ [SRP54]", "protein stability index": "3.17 ± 0.21"},
      {"sequence": "GMNLLSNLSQNVVPYHR [SWI1]", "protein stability index": "1.88 ± 0.079"},
      {"sequence": "GNAVTVTEDGTVVTVVS [RPL22A]", "protein stability index": "1.38 ± 0.044"},
      {"sequence": "GNDNLIKAPTVAADGKL [YLR335W/NUP2]", "protein stability index": "2.46 ± 0.097"},
      {"sequence": "GNDTISKFYNMKQPYVF [SSN2]", "protein stability index": "3.12 ± 0.12"},
      {"sequence": "GNGKLSEHFLYLAKELN [RPN1]", "protein stability index": "3.06 ± 0.23"},
      {"sequence": "GNIVKEFENKFQNSYKP [YMR129W/POM152]", "protein stability index": "3.35 ± 0.081"},
      {"sequence": "GNNKDLKNTMQYLTNFS [RPB4]", "protein stability index": "3.16 ± 0.08"},
      {"sequence": "GNNTELTKTTVNISAVD [YCG1]", "protein stability index": "2.98 ± 0.07"},
      {"sequence": "GNQRKILQYSRTWYESF [YJR042W/NUP85]", "protein stability index": "2.36 ± 0.099"},
      {"sequence": "GNRYLEKRLNLRVEHIK [RPL21A]", "protein stability index": "3.05 ± 0.077"},
      {"sequence": "GNSESKVEKGVNIEPFN [LIN1]", "protein stability index": "3.7 ± 0.13"},
      {"sequence": "GNVIQFIYGEDGMDAAH [RPO21]", "protein stability index": "2.89 ± 0.065"},
      {"sequence": "GNYIKTENATENDQQDN [LIN1]", "protein stability index": "2.51 ± 0.098"},
      {"sequence": "GQHKNNTSLNINGWKFE [SWP82]", "protein stability index": "3.09 ± 0.075"},
      {"sequence": "GQKNEVRILRLITTNSV [SNF2]", "protein stability index": "2.21 ± 0.052"},
      {"sequence": "GQLGLDDNDVPGPLPDT [YLR018C/POM34]", "protein stability index": "3.27 ± 0.2"},
      {"sequence": "GRENFVYANNPEVSDDG [SIR3]", "protein stability index": "3.05 ± 0.096"},
      {"sequence": "GRGGSGWKPYYKLFIWL [YML031W/NDC1]", "protein stability index": "1.5 ± 0.055"},
      {"sequence": "GRHVATCSSDQHIKVFK [YGL100W/SEH1]", "protein stability index": "2.71 ± 0.066"},
      {"sequence": "GRMDMTRLYDYEIRDID [SSN2]", "protein stability index": "3.29 ± 0.24"},
      {"sequence": "GRRKTWKRQNTLSLWRY [RPL15A]", "protein stability index": "3.21 ± 0.1"},
      {"sequence": "GRTGRAANEGTAVSFVS [PRP28]", "protein stability index": "2.7 ± 0.26"},
      {"sequence": "GRTPNISNGTINIQKKL [SIR4]", "protein stability index": "2.37 ± 0.058"},
      {"sequence": "GRVKALEQFMERNNIGE [YDL116W/NUP84]", "protein stability index": "2.78 ± 0.12"},
      {"sequence": "GSCTRQLAGKSGEDTNV [YOR098C/NUP1]", "protein stability index": "3.38 ± 0.2"},
      {"sequence": "GSEEKAFVPKKRKTNII [SRP54]", "protein stability index": "3.12 ± 0.069"},
      {"sequence": "GSEVRLRDDTLPKAWIS [COR1]", "protein stability index": "2.49 ± 0.053"},
      {"sequence": "GSGKSNMMDAISFVLGV [SMC1]", "protein stability index": "3.18 ± 0.073"},
      {"sequence": "GSGSRLNRLPAASLGDM [RPL23A]", "protein stability index": "2.28 ± 0.17"},
      {"sequence": "GSKKGQEGKISSVYRLK [RPL26A]", "protein stability index": "3.15 ± 0.11"},
      {"sequence": "GSKMEAKNEDDPAHSLN [AAR2]", "protein stability index": "2.34 ± 0.14"},
      {"sequence": "GSLACDTADEAKTLIPS [RPB4]", "protein stability index": "3.06 ± 0.1"},
      {"sequence": "GSNNGFGNKPAGSTGFS [YGR119C/NUP57]", "protein stability index": "1.65 ± 0.076"},
      {"sequence": "GSNQQSSTGGGLFGNKP [YGR119C/NUP57]", "protein stability index": "3.36 ± 0.093"},
      {"sequence": "GSNVLKSGKTIVITSIT [RRP43]", "protein stability index": "1.72 ± 0.063"},
      {"sequence": "GSTGGLGASFGQQQQQS [YGL172W/NUP49]", "protein stability index": "2.76 ± 0.2"},
      {"sequence": "GSTSLIEGMEQRIIKEL [ARP7]", "protein stability index": "3.19 ± 0.12"}
    ]}
  ]
}
